# B1: 31-F1 (bispecific antibody)
# heavy 1: not shown
# light 1: DIQMTQSPSSLSASVGDRVTITCRASGNIHNYLAWYQQKPGKAPKLLIYNAETLADGVPSRFSGSGSGTDFTLTISSLQPEDFATYYCQHFWSTPPTFGGGTKVEIKRTVAAPSVFIFPPSDEQLKSGTASVVCLLNNFYPREAKVQWKVDNALQSGNSQESVTEQDSKDSTYSLSSTLTLSKADYEKHKVYACEVTHQGLSSPVTKSFNRGEC
# heavy 2: not shown
# light 2: not shown
# notes: PSMA x CD3, Format 1
# Experiments:
# [1] = target: T1, human PSMA antigen (Acro, Cat. No. PSA-H52H3; Lys44-Ala750) (human, UniProt Q04609 44-750); experiment: SPR (Biacore T200, 25 C), antibody captured on Protein A, 1:1 model
# T1 construct: range 44-750
# T1 sequence (Q04609 44-750 limits assumed): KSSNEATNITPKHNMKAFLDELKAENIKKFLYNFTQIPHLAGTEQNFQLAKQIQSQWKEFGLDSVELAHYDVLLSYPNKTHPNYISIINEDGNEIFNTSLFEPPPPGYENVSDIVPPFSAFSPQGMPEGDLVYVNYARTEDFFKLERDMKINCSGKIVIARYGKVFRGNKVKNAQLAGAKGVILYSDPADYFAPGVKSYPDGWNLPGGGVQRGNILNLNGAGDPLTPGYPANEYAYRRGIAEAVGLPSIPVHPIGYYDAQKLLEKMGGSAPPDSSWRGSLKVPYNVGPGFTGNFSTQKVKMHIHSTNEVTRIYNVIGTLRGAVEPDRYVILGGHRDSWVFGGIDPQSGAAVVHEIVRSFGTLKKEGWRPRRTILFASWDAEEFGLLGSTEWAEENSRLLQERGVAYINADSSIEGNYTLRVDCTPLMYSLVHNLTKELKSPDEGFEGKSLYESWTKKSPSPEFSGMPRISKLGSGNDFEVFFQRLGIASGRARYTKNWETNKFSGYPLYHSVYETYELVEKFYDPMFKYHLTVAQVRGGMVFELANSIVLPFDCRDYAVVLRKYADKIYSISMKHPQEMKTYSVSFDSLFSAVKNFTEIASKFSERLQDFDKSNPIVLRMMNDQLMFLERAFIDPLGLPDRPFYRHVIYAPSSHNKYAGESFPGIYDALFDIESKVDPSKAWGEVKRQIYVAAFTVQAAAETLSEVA
# Experimental: Experiment 5: Antibodies were affinity-captured using a Protein A biosensor chip, and human PSMA was then allowed to flow over the chip surface. The association and dissociation curves were obtained by real-time detection of reaction signals using a Biacore T200 instrument at 25° C. After the dissociation in each experimental cycle was complete, the biosensor chip was regenerated by washing with Glycine 1.5. Data fitting was performed using a 1:1 Model. The human PSMA antigen was purchased from Acro (Cat. No. PSA-H52H3; Lys44-Ala750), and the hCD3D&CD3E complex antigen was purchased from Sino Biological (Cat. No. CT038-H2508H).
# [2] = target: T2, human PSMA on cells (Cho-hPSMA, CHO-K1 cells overexpressing full-length human PSMA) (human, UniProt Q04609 1-750); experiment: flow cytometry, Cho-hPSMA; antibody at 20 µg/mL
# T2 construct: whole, on cells; also called cell surface PSMA; PSMA-expressing Lncap cells
# T2 sequence (Q04609 whole entry): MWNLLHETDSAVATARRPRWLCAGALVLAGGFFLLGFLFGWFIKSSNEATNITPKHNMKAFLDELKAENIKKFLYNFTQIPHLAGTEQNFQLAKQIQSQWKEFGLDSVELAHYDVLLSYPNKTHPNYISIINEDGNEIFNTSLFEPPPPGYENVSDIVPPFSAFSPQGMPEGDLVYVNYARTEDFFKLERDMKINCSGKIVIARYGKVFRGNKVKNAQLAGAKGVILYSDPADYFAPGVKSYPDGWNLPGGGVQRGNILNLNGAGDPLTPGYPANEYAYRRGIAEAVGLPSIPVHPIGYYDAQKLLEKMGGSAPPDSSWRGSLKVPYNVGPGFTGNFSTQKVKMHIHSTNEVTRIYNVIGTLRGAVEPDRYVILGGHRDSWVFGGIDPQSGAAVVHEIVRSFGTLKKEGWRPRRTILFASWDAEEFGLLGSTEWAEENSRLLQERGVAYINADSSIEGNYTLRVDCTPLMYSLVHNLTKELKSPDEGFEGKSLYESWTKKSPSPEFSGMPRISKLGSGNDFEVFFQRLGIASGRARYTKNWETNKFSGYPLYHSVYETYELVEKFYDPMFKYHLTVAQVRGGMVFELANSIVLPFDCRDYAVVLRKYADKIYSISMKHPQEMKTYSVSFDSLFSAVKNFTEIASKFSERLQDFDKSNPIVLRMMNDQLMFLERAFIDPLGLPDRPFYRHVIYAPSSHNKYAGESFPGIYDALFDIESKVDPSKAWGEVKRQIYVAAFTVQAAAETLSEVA
# [3] = target: T2, human PSMA on cells (Cho-hPSMA, CHO-K1 …); experiment: flow cytometry, Cho-hPSMA; antibody at 4 µg/mL
# [4] = target: T2, human PSMA on cells (Cho-hPSMA, CHO-K1 …); experiment: flow cytometry, Cho-hPSMA; antibody at 0.8 µg/mL
# [5] = target: T2, human PSMA on cells (Cho-hPSMA, CHO-K1 …); experiment: flow cytometry, Cho-hPSMA; antibody at 100 µg/mL
binder,measurement,setting,value
B1,Kd,[1],1.86 nM
same,koff,[1],1.84e-05 s⁻¹
same,kon,[1],9890 M⁻¹ s⁻¹
same,fluorescence intensity,[2],16200
same,fluorescence intensity,[3],7970
same,fluorescence intensity,[4],2520
same,fluorescence intensity,[5],16500

# From patent publication US20250043022A1 (JIANGSU HENGRUI PHARMACEUTICALS, published 2025)
